B1: ClpX (enzyme)
chain: not shown
notes: E. coli ClpX unfoldase (N-terminal ZBD and C-terminal AAA+ domain); expressed from pProEXHTb ClpX; the SPR running buffer held EDTA and no nucleotide, and the oligomeric state in that assay was not measured; also called WT ClpX; full-length ClpX; source: E. coli BL21(DE3), purified the same way as TF (Ni-NTA; His-tag removed with TEV protease)
B2: zinc-binding domain (ZBD) of ClpX (domain or fragment, E. coli)
chain: TDKRKDGSGKLLYCSFCGKSQHEVRKLIAGPSVYICDECVDLCNDIIREEIKEVAPHRER
notes: Tag removal rests on the words 'purified by the same procedure as TFN'; Isotopically labelled in one NMR experiment; also called ClpX ZBD; ZBD dimer; source: E. coli BL21(DE3), purified (Ni Sepharose, gel filtration; same procedure as TFN; 100 μM ZnCl2 added before size exclusion)
B3: λ phage replication protein λO (natural protein, UniProt P03688 1-333, looked up)
chain: MTNTAKILNFGRGNFAGQERNVADLDDGYARLSNMLLEAYSGADLTKRQFKVLLAILRKTYGWNKPMDRITDSQLSEITKLPVKRCNEAKLELVRMNIIKQQGGMFGPNKNISEWCIPQNEGKSPKTRDKTSLKLGDCYPSKQGDTKDTITKEKRKDYSSENSGESSDQPENDLSVVKPDAAIQSGSKWGTAEDLTAAEWMFDMVKTIAPSARKPNFAGWANDIRLMRERDGRNHRDMCVLFRWACQDNFWSGNVLSPAKLRDKWTQLEINRNKQQAGVTASKPKLDLTNTDWIYGVDLKTSPHRWLTLTVSRCVGSPTTCRNSTTKSRRYSR
notes: replication protein O of phage λ
B4: trigger factor (TF) (natural protein, E. coli, UniProt P0A850 1-432, looked up)
chain: MQVSVETTQGLGRRVTITIAADSIETAVKSELVNVAKKVRIDGFRKGKVPMNIVAQRYGASVRQDVLGDLMSRNFIDAIIKEKINPAGAPTYVPGEYKLGEDFTYSVEFEVYPEVELQGLEAIEVEKPIVEVTDADVDGMLDTLRKQQATWKEKDGAVEAEDRVTIDFTGSVDGEEFEGGKASDFVLAMGQGRMIPGFEDGIKGHKAGEEFTIDVTFPEEYHAENLKGKAAKFAINLKKVEERELPELTAEFIKRFGVEDGSVEGLRAEVRKNMERELKSAIRNRVKSQAIEGLVKANDIDVPAALIDSEIDVLRRQAAQRFGGNEKQALELPRELFEEQAKRRVVVGLLLGEVIRTNELKADEERVKGLIEEMASAYEDPKEVIEFYSKNKELMDNMRNVALEEQAVEAVLAKAKVTEKETTFNELMNQQA

In the experiment “trigger factor (TF)” the target is B4. Put plainly: SPR; TF immobilised on a CM5 chip by amine coupling, analytes injected at 20 μL/min for 90 s; Biacore X, 22 °C; 10 mM HEPES pH 7.5, 150 mM NaCl, 3 mM EDTA, 0.005% P20; steady-state response against concentration, one-site Langmuir model; apparent Kd for ClpX. The note with it: both partners purified. (Surface plasmon resonance follows binding to a sensor surface in real time, without labels.)

Experiment [1] addresses HV-ClpX (N-terminally tagged ClpX) (E. coli, UniProt P0A6H1 1-424). Put plainly: cell-based or functional assay.

Here are results for four molecules from paper PMC7804408, “Functional cooperativity between the trigger factor chaperone and the ClpXP proteolytic complex” (Nature Communications, 2021).

Sequence of HV-ClpX (N-terminally tagged ClpX) (P0A6H1 whole entry): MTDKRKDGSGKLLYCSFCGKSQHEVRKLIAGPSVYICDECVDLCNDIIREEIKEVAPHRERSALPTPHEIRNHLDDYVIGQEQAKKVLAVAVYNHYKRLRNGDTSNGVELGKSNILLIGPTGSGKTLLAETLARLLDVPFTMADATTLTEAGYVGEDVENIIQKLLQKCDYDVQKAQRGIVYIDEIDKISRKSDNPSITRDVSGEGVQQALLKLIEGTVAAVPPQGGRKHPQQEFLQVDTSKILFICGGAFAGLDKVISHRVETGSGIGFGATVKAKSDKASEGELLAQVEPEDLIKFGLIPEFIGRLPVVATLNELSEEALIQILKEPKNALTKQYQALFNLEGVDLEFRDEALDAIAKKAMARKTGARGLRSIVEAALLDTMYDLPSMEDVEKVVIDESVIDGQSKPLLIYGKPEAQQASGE

Take B1: the Kd with trigger factor (TF) was 9.3 µM.

Take B2: the Kd with trigger factor (TF) amounted to 12.8 µM.

Consider B3, for which the Kd with trigger factor (TF) was found to be 3.8 µM.

Consider B4, for which the “clipping of HV-ClpX by bound ClpP with ATP, rate of disappearance of HV-ClpX with and without TF (Fig. 3b)” value in experiment [1] is above 2 fold.
